Test results reported in patent EP4674437A1.

Assays:
[1] = target: Human DLL3 full-length protein (human); experiment: FACS on H1184 cells
[2] = target: Human DLL3 full-length protein (human); experiment: cell-based or functional assay
[3] = target: Cynomolgus monkey DLL3 full-length protein (cynomolgus monkey); experiment: FACS on cynoDLL3/CHO-s cells

EC50 [1]: 3.94 nM
Emax (geometric MFI) [1]: 1620
EC50 [3]: 3.42 nM
Emax (geometric MFI) [3]: 963
Substance: BI-764532 (antibody)
IC50 (nM), cell killing caused by endocytosis of antibody (DT3C, DMS53/DLL3 cells) [2]: 3.27 nM
Imax, cell killing caused by endocytosis of antibody (DT3C, DMS53/DLL3 cells) [2]: 86.5
